Test results: patent US20210371487A1
Where two headings read alike, the source gives them in different places.

Columns and labels:
Factor X [1] = molecular target: Factor X (UniProt P00742); experiment: cell-based or functional assay
Factor X [2] = molecular target: Factor X (UniProt P00742)
Factor X [3] = molecular target: Factor X (UniProt P00742); experiment: cell-based or functional assay; remark: listed apart in the source

Factor X, P00742, sequence (P00742 whole entry, looked up): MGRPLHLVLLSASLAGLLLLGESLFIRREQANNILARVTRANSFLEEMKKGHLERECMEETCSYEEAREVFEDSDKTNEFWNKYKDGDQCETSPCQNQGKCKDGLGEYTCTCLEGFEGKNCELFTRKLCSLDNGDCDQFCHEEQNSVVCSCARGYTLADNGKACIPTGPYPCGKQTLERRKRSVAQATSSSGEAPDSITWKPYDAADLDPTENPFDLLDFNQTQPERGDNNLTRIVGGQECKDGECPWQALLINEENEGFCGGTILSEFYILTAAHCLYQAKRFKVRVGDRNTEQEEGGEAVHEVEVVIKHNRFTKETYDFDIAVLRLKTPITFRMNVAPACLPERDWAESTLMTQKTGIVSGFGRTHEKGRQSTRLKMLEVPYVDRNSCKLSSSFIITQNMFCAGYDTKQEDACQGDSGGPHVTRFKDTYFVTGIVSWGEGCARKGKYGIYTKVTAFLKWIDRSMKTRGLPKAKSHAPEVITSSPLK

| Sample/plasma EC50 ratio (FIX chromogenic activity, BIOPHEN kit) (Factor X [1]) | EC50, FIX chromogenic activity (BIOPHEN kit) (Factor X [1]) [µg/mL] | Molecule | also measured |
| --- | --- | --- | --- |
| 2 | – | FIX-CTP3 (enzyme) | – |
| 5.35 | – | FIX-CTP4 (enzyme) | – |
| 2.73 | – | FIX-CTP5 (enzyme) | – |
| – | 1.64 | FIX-CTP (from UniProt P00740 47-461) (enzyme) | – |
| – | – | FIX-CTP-CTP | fold decrease in the enzymatic activity (chromogenic assay) (Factor X [2]): An approximately 15-fold decrease in the enzymatic activity of the FIX-(CTP)2 harvest was observed.; fold decrease in the enzymatic activity versus normal human pulled plasma (chromogenic assay) (Factor X [2]): a 16.5-fold decrease versus normal human pulled plasma; fold decrease in the enzymatic activity vs. recombinant FIX (chromogenic assay) (Factor X [2]): An approximately 7-fold decrease in the enzymatic activity of FIX-CTP-CTP was observed vs. recombinant FIX |
| – | 0.382 | FIX-CTP-CTP (enzyme) | EC50, FIX chromogenic activity (BIOPHEN kit) (Factor X [3]): 0.505 µg/mL |
| – | 0.021 | rhFIX (American Diagnostics) (from UniProt P00740 47-461) (enzyme) | EC50, FIX chromogenic activity (BIOPHEN kit) (Factor X [3]): 0.0687 µg/mL |
| – | – | rFVII-CTP (protein) AVFVTQEEAHGVLHRRRRANAFLEELRPGSLERECKEEQCSFEEAREIFKDAERTKLFWISYSDGDQCASSPCQNGGSCKDQLQSYICFCLPAFEGRNCETHKDDQLICVNENGGCEQYCSDHTGTKRSCRCHEGYSLLADGVSCTPTVEYPCGKIPILEKRNASKPQGRIVGGKVCPKGECPWQVLLLVNGAQLCGGTLINTIWVVSAAHCFDKIKNWRNLIAVLGEHDLSEHDGDEQSRRVAQVIIPSTYVPGTTNHDIALLRLHQPVVLTDHVVPLCLPERTFSERTLAFVRFSLVSGWGQLLDRGATALELMVLNVPRLMTQDCLQQSRKVGDSPNITEYMFCAGYSDGSKDSCKGDSGGPHATHYRGTWYLTGIVSWGQGCATVGHFGVYTRVSQYIEWLQKLMRSEPRPGVLLRAPFPSSSSKAPPPSLPSPSRLPGPSDTPILPQ | FVII chromogenic activity (AssaySense Human FVII Chromogenic Activity Assay Kit) (Factor X, P00742): The addition of the CTP peptide at the C-terminal of the rFVII protein did not impair the FVII serine protease activity |
